Target: PGK1 (UniProt P00558)
Assay: GST pull-down with purified proteins
Conditions: reference: WT GST-ARD1 with mTOR; sites S228

binding against the reference: stronger
Substance: ARD1 (from UniProt P41227) GST-ARD1 S228A with mTOR

— article PMC5389741
